B2: sgp130-Fc (R&D Systems), a fusion protein of sgp130 and human IgG Fc (Fc fusion)
chain: ELLDPCGYISPESPVVQLHSNFTAVCVLKEKCMDYFHVNANYIVWKTNHFTIPKEQYTIINRTASSVTFTDIASLNIQLTCNILTFGQLEQNVYGITIISGLPPEKPKNLSCIVNEGKKMRCEWDGGRETHLETNFTLKSEWATHKFADCKAKRDTPTSCTVDYSTVYFVNIEVWVEAENALGKVTSDHINFDPVYKVKPNPPHNLSVINSEELSSILKLTWTNPSIKSVIILKYNIQYRTKDASTWSQIPPEDTASTRSSFTVQDLKPFTEYVFRIRCMKEDGKGYWSDWSEEASGITYEDRPSKAPSFWYKIDPSHTQGYRTVQLVWKTLPPFEANGKILDYEVTLTRWKSHLQNYTVNATKLTVNLTNDRYLATLTVRNLVGKSDAAVLTIPACDFQATHPVMDLKAFPKDNMLWVEWTTPRESVKKYILEWCVLSDKAPCITDWQQEDGTVHRTYLRGNLAESKCYLITVTPVYADGPGSPESIKAYLKQAPPSKGPTVRTKKVGKNEAVLEWDQLPVDVQNGFIRNYTIFYRTIIGNETAVNVDSSHTEYTLSSLTSDTLYMVRMAAYTDEGGKDGPEFTFTTPKFAQGEIE
notes: extracellular domain; Immobilized on the CM5 chip in the BIAcore work; the results text calls it sgp130; also called immobilized sgp130; not shown: human IgG Fc

Tests used:
[1] = target: B2; experiment: SPR (BIAcore 2000), equilibrium data, Scatchard analysis, sgp130-Fc immobilized
[2] = target: B2; experiment: SPR (BIAcore 2000), sgp130-Fc immobilized on CM5, MBPvIL-6 in flow, 1:1 Langmuir binding model
[3] = target: B2; experiment: SPR Kd of this filing against a previously reported Kd (1.7 nM) of the human IL-6/sIL-6Rα complex
[4] = target: T1, maltose binding protein (MBP), control (UniProt P0AEX9 27-392 = MBP); experiment: surface plasmon resonance (BIAcore 2000), sgp130 immobilized at 1.5 ng/mm2
[5] = target: T1, maltose binding protein (MBP), control; experiment: indirect ELISA, receptor immobilized
Method: Reactions were visualized by using tetramethoxybenzene peroxidase substrate (Kirkegaard & Perry Laboratories, Gaithersburg, Md.), followed by 2N H2SO4. The interference of vIL-6 binding to sgp130 by mAbs was analyzed in a similar manner. […] The mixture was applied to the plates coated with sgp130 (2 μg/ml) after SuperBlock treatment. The protein complex was detected by streptavidin-HRP (1:1000; Kirkegaard & Perry Laboratories), and the peroxidase activity was visualized by tetramethoxybenzene peroxidase substrate, followed by 2N H₂SO₄. Plates were read at 450 nm with λ correction at 630 m using a microplate reader.

B1: MBPvIL-6 (fusion of maltose binding protein, a factor Xa cleavage site and amino acids 22-204 of KSHV vIL-6) (ligand)
chain: GKLPDAPEFEKDLLIQRLNWMLWVIDECFRDLCYRTGICKGILEPAAIFHLKLPAINDTDHCGLIGFNETSCLKKLADGFFEFEVLFKFLTTEFGKSVINVDVMELLTKTLGWDIQEELNKLTKTHYSPPKFDRGLLGRLQGLKYWVRHFASFYVLSAMEKFAGQAVRVLNSIPDVTPDVHDK
modifications: biotinylated in the sgp130 interference ELISA (sites not given)
notes: range 22-204; also called recombinant vIL-6; full length MBPvIL-6; not shown: factor Xa cleavage site and vector linker between MBP and vIL-6
Kd [1]: 2.5 µM
Kd [2]: 2.2 µM
koff [2]: 0.0022 s⁻¹
kon [2]: 980 M⁻¹ s⁻¹
fold lower binding affinity than human IL-6/sIL-6Rα complex to gp130 [3]: 1000 fold

B2
binding result [4]: no binding

B3: purified recombinant human sgp130 (R&D Systems) (receptor)
chain: ELLDPCGYISPESPVVQLHSNFTAVCVLKEKCMDYFHVNANYIVWKTNHFTIPKEQYTIINRTASSVTFTDIASLNIQLTCNILTFGQLEQNVYGITIISGLPPEKPKNLSCIVNEGKKMRCEWDGGRETHLETNFTLKSEWATHKFADCKAKRDTPTSCTVDYSTVYFVNIEVWVEAENALGKVTSDHINFDPVYKVKPNPPHNLSVINSEELSSILKLTWTNPSIKSVIILKYNIQYRTKDASTWSQIPPEDTASTRSSFTVQDLKPFTEYVFRIRCMKEDGKGYWSDWSEEASGITYEDRPSKAPSFWYKIDPSHTQGYRTVQLVWKTLPPFEANGKILDYEVTLTRWKSHLQNYTVNATKLTVNLTNDRYLATLTVRNLVGKSDAAVLTIPACDFQATHPVMDLKAFPKDNMLWVEWTTPRESVKKYILEWCVLSDKAPCITDWQQEDGTVHRTYLRGNLAESKCYLITVTPVYADGPGSPESIKAYLKQAPPSKGPTVRTKKVGKNEAVLEWDQLPVDVQNGFIRNYTIFYRTIIGNETAVNVDSSHTEYTLSSLTSDTLYMVRMAAYTDEGGKDGPEFTFTTPKFAQGEIE
notes: extracellular domain; Used in the ELISA assays; Bought; also called soluble gp130
binding result [5]: no binding

B4: purified recombinant human sIL-6Rα (R&D Systems) (receptor)
chain: LAPRRCPAQEVARGVLTSLPGDSVTLTCPGVEPEDNATVHWVLRKPAAGSHPSRWAGMGRRLLLRSVQLHDSGNYSCYRAGRPAGTVHLLVDVPPEEPQLSCFRKSPLSNVVCEWGPRSTPSLTTKAVLLVRKFQNSPAEDFQEPCQYSQESQKFSCQLAVPEGDSSFYIVSMCVASSVGSKFSKTQTFQGCGILQPDPPANITVTAVARNPRWLSVTWQDPHSWNSSFYRLRFELRYRAERSKTFTTWMVKDLQHHCVIHDAWSGLRHVVQLRAQEEFGQGEWSEWSPEAMGTPWTESRSPPAENEVSTPMQALTTNKDDDNILFRDSANATSLPVQDSSSVPLP
notes: extracellular domain; Bought; also called soluble IL-6Rα
binding result [5]: no binding
